Reference: the RNAGym collection of RNA variant scans (doi:10.1073/pnas.2313332121)

B1: TPR t1 (parent)
chain: GACCAAUCUGCCCUCAGAGCUCGAGAACAUCUUCGGAUGCAGAGGAGGCAGGCUUCGGUGGCGCGAUAGCGCCAACGUCCUCAACCUCCAAUGCAUCCCACCACAUGAUGAUGCCUGAAGAGCCUUGGUUUUUUG

Variants of: B1
Assay: polymerase ribozyme fitness, log enrichment relative to wild type (log ratio); higher = more active; in vitro selection for triplet polymerase activity
Summary of the method: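 Genotype fitness is the logarithm of its enrichment divided by wild-type enrichment, using inverse-variance-weighted averages of replicates. That logarithm is base 2. Enrichment was measured by Illumina sequencing of input and output libraries from one triplicate in vitro selection round, with frozen incubation at −7 °C, on PCR-built, transcribed mutant libraries of each subunit of a heterodimeric triplet polymerase ribozyme, retaining genotypes with ≥10 input reads and ≥1 read per output.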

Row | Variant | polymerase ribozyme fitness (log ratio)
1 | C3U C80G | -5.98
2 | C3A G36C G63A U130C | -2.1
3 | C4A G45C G120A G127C | -1.29
4 | A2U C13U C72G C114U | -3.41
5 | A2G C8U U87A C89U C123A | 1.08
6 | C3G G93U C98U G128C | -2.57
7 | A2U C11U G57U A91U | -4.18
8 | C3A A6G C13U C15G U59C | -3.21
9 | C3U C40G C115A | -1.95
10 | A2G U59G G122A U129C | -0.941
11 | C3G G10C C34G G42U G69U C82G C102A U109A | -5.83
12 | C3U C11G A24G C40U C62G | -3.32
13 | C3U U87G | -0.293
14 | C3A A5G C12A G63U A68G C115G G122A U130G | -6.94
15 | C3U G71U | -0.48
16 | C3A G71C C79G A119G C123A | -1.16
17 | C3G C88G | -2.34
18 | C3A A74C | -2.99
19 | A2G C13G C123G | 1.11
20 | C3U U9C C49A C70U C76A C115A | -0.878
21 | A2U A37U U54A G69U U78G A105G | -3.36

Row | Variant | polymerase ribozyme fitness (log ratio)
22 | C3A A105G | -4.78
23 | A2G G35C | -3.63
24 | C3A C40A G47A G60A A75U C86U C97U C123A U132A | -1.07
25 | C3U G10A U21C G61A C98U A119U | -2.55
26 | C3A C8U | -1.3
27 | A2U C20U | -3.71
28 | C3A C56A G71A G127U | -3.57
29 | A2G C114A C124A | -0.647
30 | A2U A5C | -2.09
31 | C3U U7G A84U C101U G110U U125A | -3.16
32 | A2U C56A | -2.33
33 | C3G C34G C76G A91C U109G | -6.42
34 | A2G C15U A37U C101G C104A | -5.07
35 | C3U G52A C62U A121U | 1.52
36 | C3U U55C G120C | -1.02
37 | C3A G10U G69U C72U C101U | -1.82
38 | C3G C72U | -2.37
39 | C3G C72A | -1.64
40 | A2U C72A | -2.16
41 | A2U C13A | -3.76
42 | A2G C64U C89G U112A | -1.2

Row | Variant | polymerase ribozyme fitness (log ratio)
43 | C3U C40U U54C U92G | -3.03
44 | A2U U9G | -1.32
45 | A2U C13U A41G A43U C49U U92C G93C C115U U131G U132A | -4.38
46 | C3U G69C C88G U96G | -2.75
47 | A2G C12U A29U G69C A75G C94A C123U | -4.95
48 | A2G C8G C70G | -2.83
49 | C3G C13A | -3.57
50 | A2G G52U A91U A95C | -3.47
51 | A2U G35U | -6.73
52 | C3A C62U A105G | -4.05
53 | A2G G52A C99U | -3.53
54 | A2G C73U | -0.754
55 | C3U U14A C53G C64U G120A | 0.544
56 | C4A C11G | -1.18
57 | A2U C98U | -3.18
58 | C4A C86G | -2.58
59 | C4A C86A | -2.74
60 | C3A G57A C114U | -4.29
61 | C4A G23A A50G G61C U87C A95G G117U C123G | -6.54
62 | C3U C12A G61C A84C U130C U133G | -2.37
63 | C3U C12U G110A | -0.836

Row | Variant | polymerase ribozyme fitness (log ratio)
64 | C4A C8A A37U C56A | -1.7
65 | C3U C28A A41G C56U G120C | -5.25
66 | C4A C104A | -2.32
67 | C4A A95U | -1.38
68 | A2G G77A C80A C124A | -0.514
69 | C3U G39C G44A G77U U78A A119G | -1.19
70 | A2G G44C C62A C97U C115U G135A | -5.32
71 | C3U G71U U125G | -1.58
72 | C3A A41U C70A A91C U112G U125G G127U | -4.59
73 | C3U C11U C13G U116C | -4.66
74 | C3A C40A G93U G110U | -3.31
75 | A2G G69A C89G G110U | -6
76 | C3U A24G G47C | -3.61
77 | C3U C8U G71U C88U G117C | -4.1
78 | C3U C12G C85U | -1.47
79 | A2G C13U C53U C72G | -0.398
80 | A2G G93A | -0.719
81 | C4A C114U C124A | -2.3
82 | C3A C28U G57A G69U C82U | -3.79
83 | C3A G48U | -2.67
84 | C3A C15A | -3.67
